Source: the nanobody polyreactivity screen of Harvey et al. (2022)

Test: yeast display, Sf9 membrane polyspecificity reagent, FACS + sequencing; frameworks hold sequencing errors
In short: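 Galactose-induced (36–48 hours) yeast carrying a synthetic nanobody display library were exposed to 10% biotinylated, detergent-solubilized Sf9 membrane reagent at 4 °C for 1 hour. FACS followed streptavidin microbead enrichment, using low and high (top ~1%) gates for expression (anti-HA) and reagent binding (streptavidin). Colony PCR, MiSeq 2 × 250 sequencing and CDR-length filtering followed. Labels for polyreactivity reflect the gate of origin.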

| Sequence | polyreactivity (PSR sort gate) |
| --- | --- |
| QVQLVESGGGLVQAGGSLRLSCAASGRIFKYYAMGWYRPAPWKKRELVATISVSGGRTYYADSVKGRFTISRDNAKNTVYLQMNSLKPEDTAVYYCAAYSVIRRRVEYGYWGQGTQVTVSS | high polyreactivity |
| QVQLVESGGGLVQAGGSLRLSCAASGRIFKYYAMGWYRQAPGKERELVAAISTSVGSTYYADSVKGRFTISRDNAKNTVYLQMNSLKPEDTAVYYCNTRKYHYFLGGAAGNYWGQGTQVTVSS | high polyreactivity |
| QVQLVESGGGLVQAGGSLRLSCAASGRIFKYYAMGWYRQAPGKERELVAAITSSGVSTYADSVKGRFTISRDNAKNTVYLQMNSLKPEDTAVSYCNAADERSQGWVGCDHWGQCTQVTVSS | low polyreactivity |
| QVQLVESGGGLVQAGGSLRLSCAASGRIFKYYAMGWYRQAPGKERELVATITSGGRTNYADSVKGRFTISRDNAKNTVYLQMNSLKPEDTAVYYCARRPPASSRYDYWGQGTQVTVSS | high polyreactivity |
| QVQLVESGGGLVQAGGSLRLSCAASGRIFKYYAMGWYRQAPGKNRELVATISVSGANTYYADSVKGRFTISRDNAKNPVYLQMNSLKREDTAVYFCAAGYAGVSHITRTSRKSHYGYWGQGTQVTVSS | high polyreactivity |
| QVQLVESGGGLVQAGGSLRLSCAASGRIFKYYARGGYRQAPGKERELVAAISGSGGSTFYADSVKGRFTISRDNAKNTVYLQMNSLKPEDTAVYYCNADEVVWGYNYWGQGTQVTVSS | low polyreactivity |
| QVQLVESGGGLVQAGGSLRLSCAASGRIFKYYSMGWYRQAPWKERELVAAITRGGSTNYADSVKGRFTISRDNEKNTVYLQMNSLKPEDTAVYYCAVDTVRNHRMDYWGQGTQVTVSS | low polyreactivity |
| QVQLVESGGGLVQAGGSLRLSCAASGRIFLDYAMGWYRQAPGKERELVAAINSGGRTNYADSVKGRFTISRDNAKNTVYLQMNSLKPEDTAVYYCAAGYWPRWFWPYEYWGQGTQVTVSS | low polyreactivity |
| QVQLVESGGGLVQAGGSLRLSCAASGRIFLDYVMGWYRQAPGKERELVAAISWSGDRTDYADSVKGRFTISRDNAKNTVYLQMNSLKPEDTAVYYCASTWYFAYSDDYKFDYWGQGTQVTVSS | low polyreactivity |
| QVQLVESGGGLVQAGGSLRLSCAASGRIFLFYAMGWYRQGPGKERALVAAINWSGTRTYYADSVKGRFTISRDNAKNSVYLHMNSLKPEDTAVYDCNVDTSVYDFSEYDYWGQGTQVTVSS | high polyreactivity |
| QVQLVESGGGLVQAGGSLRLSCAASGRIFLFYTMGWYRQAPGKERELVAGITFSGGSTYYADSVKGRFTISRDNAKNTVYLQMNSLKPEDTAVYYCNARRWWQSYDYWGQGTQVTVSS | high polyreactivity |
| QVQLVESGGGLVQAGGSLRLSCAASGRIFLGNAMGWYRPAPGKERELVAAITNGGGSTYYADSVNGRFTISRDNAKNTVYLQMNSLKPEDTAVYYCAAQRWTVKYNYWGQGTQVTVSS | high polyreactivity |
| QVQLVESGGGLVQAGGSLRLSCAASGRIFLGNAMGWYRQAPGKERELVDAITYSGRSTYYADSVKGRFTISRDNAKNTVYLQMNSLKPEDTAVYYCAARQYWTTDLPFQRYYYWGQGTHVTVSS | low polyreactivity |
| QVQLVESGGGLVQAGGSLRLSCAASGRIFLGYAMGWYRQAPGQERELVASITSSGGSTYYADSVKGRFTISRDNAKNTVYLLMNSLKPEDTAVYYCAKVGHYRWGWLSRAASDYWGQGTQVTVSS | high polyreactivity |
| QVQLVESGGGLVQAGGSLRLSCAASGRIFLGYTMGWYRQAPGKERELVAAISKSGDSTYYADSVKGRFTISRDNAKNTVYLQMNSLKPEDTAVYYCAKDYGGRLYYYWGQGTQVTVSS | high polyreactivity |
| QVQLVESGGGLVQAGGSLRLSCAASGRIFLIYAMGWYRQAPGKERELVAAISWSGGSTYYADSVKGRFTISRDNAKNTVYLQMNSLKPEDTAVYYCNADDVNYGYYSWYDYWGQGTQVTVSS | low polyreactivity |
| QVQLVESGGGLVQAGGSLRLSCAASGRIFLLNAMGWYRQAPGKERELVADISFNGGSKYYADSVKGRFTISRDNAKNTVYLQMNSLKPEDTAVYYCNADAHNLWFRYYYWGQGTQVTVSS | low polyreactivity |
